# Results: publication PMC3561853 (Journal of Cell Science, 2012)
# Where a SMILES comes first, the peptide text is derived from it. Where no end group is shown, it is not given here. [ ]: non-standard residue; d: D form. pY = N[C@@H](Cc1ccc(OP(=O)(O)O)cc1)C(=O)O
# T1: SH3A-SH2 fragment of Vav1 (596–771) (Mus musculus, UniProt P27870)
# T1 sequence (P27870 596-771): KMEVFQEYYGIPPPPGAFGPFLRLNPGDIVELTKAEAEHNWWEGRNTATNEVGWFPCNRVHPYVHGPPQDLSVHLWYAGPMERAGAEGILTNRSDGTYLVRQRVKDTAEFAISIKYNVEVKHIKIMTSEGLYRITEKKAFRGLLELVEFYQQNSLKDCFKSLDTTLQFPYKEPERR
# T2: SH2-SH3B fragment of Vav1 (669–845) (Mus musculus, UniProt P27870)
# T2 sequence (P27870 669-845): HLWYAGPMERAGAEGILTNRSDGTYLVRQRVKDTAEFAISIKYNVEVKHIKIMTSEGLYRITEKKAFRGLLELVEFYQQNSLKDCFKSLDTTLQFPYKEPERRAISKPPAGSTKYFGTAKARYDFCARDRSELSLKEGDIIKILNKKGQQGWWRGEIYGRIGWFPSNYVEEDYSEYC
# T3: SH3A-SH2 fragment of Vav1 (596-771) (mouse, UniProt P27870 596-771)
# T3 sequence (looked up): T1 sequence (P27870 596-771)
# B1: SH3A-SH2-SH3B fragment of Vav1 (596-845) (domain or fragment, mouse, UniProt P27870 596-845, looked up)
# chain: KMEVFQEYYGIPPPPGAFGPFLRLNPGDIVELTKAEAEHNWWEGRNTATNEVGWFPCNRVHPYVHGPPQDLSVHLWYAGPMERAGAEGILTNRSDGTYLVRQRVKDTAEFAISIKYNVEVKHIKIMTSEGLYRITEKKAFRGLLELVEFYQQNSLKDCFKSLDTTLQFPYKEPERRAISKPPAGSTKYFGTAKARYDFCARDRSELSLKEGDIIKILNKKGQQGWWRGEIYGRIGWFPSNYVEEDYSEYC
# B2: SH2-SH3B fragment of Vav1 (669-845) (domain or fragment, mouse, UniProt P27870 669-845, looked up)
# chain: T2 sequence (P27870 669-845)
# B3: SH2 domain of Vav1 (669-771) (domain or fragment, mouse, UniProt P27870 669-771, looked up)
# chain: HLWYAGPMERAGAEGILTNRSDGTYLVRQRVKDTAEFAISIKYNVEVKHIKIMTSEGLYRITEKKAFRGLLELVEFYQQNSLKDCFKSLDTTLQFPYKEPERR
# Assays:
# [1] = molecular target: T1, SH3A-SH2 fragment of Vav1 (596–771); assay: Isothermal titration calorimetry; format: binding
# [2] = molecular target: T2, SH2-SH3B fragment of Vav1 (669–845); assay: Isothermal titration calorimetry; format: binding
# [3] = molecular target: SLP76 2pY peptide (pY112 and pY128) (mouse, phosphotyrosine at Y112 and at Y128 (EDDp…pYESPNE)); assay: ITC
# [4] = molecular target: B3; assay: ITC
# [5] = molecular target: B1; assay: ITC
# [6] = molecular target: B2; assay: ITC
# [7] = molecular target: T3, SH3A-SH2 fragment of Vav1 (596-771); assay: ITC
molecule,measurement,setting,value
NC(=O)C[C@H](NC(=O)[C@@H]1CCCN1C(=O)[C@H](CO)NC(=O)[C@H](CCC(=O)O)NC(=O)[C@H](Cc1ccc(OP(=O)(O)O)cc1)NC(=O)[C@H](CC(=O)O)NC(=O)[C@H](CC(=O)O)NC(=O)[C@@H](N)CCC(=O)O)C(=O)N[C@@H](CC(=O)O)C(=O)O [pY112] (HELM PEPTIDE1{E.D.D.[O=C([C@H](Cc1ccc(OP(=O)(O)O)cc1)N[*:1])[*:2]].E.S.P.N.D}$$$$V2.0),Kd,[1],1060 nM
NC(=O)C[C@H](NC(=O)[C@@H]1CCCN1C(=O)[C@H](CO)NC(=O)[C@H](CCC(=O)O)NC(=O)[C@H](Cc1ccc(OP(=O)(O)O)cc1)NC(=O)[C@H](CC(=O)O)NC(=O)CNC(=O)[C@@H](N)CC(=O)O)C(=O)N[C@@H](CCC(=O)O)C(=O)O [pY128] (HELM PEPTIDE1{D.G.D.[O=C([C@H](Cc1ccc(OP(=O)(O)O)cc1)N[*:1])[*:2]].E.S.P.N.E}$$$$V2.0),Kd,[2],1060 nM
B1,stoichiometry N,[3],2
B2,stoichiometry N,[3],2
B3,stoichiometry N,[3],2 SH2 domain:peptide
EDD[pY]ESPND [SLP76 pY112 peptide],Kd,[4],1640 nM
same,Kd,[5],1850 nM
same,Kd,[6],1320 nM
DGD[pY]ESPNE [SLP76 pY128 peptide],Kd,[5],1350 nM
same,Kd,[7],1040 nM
